Assay results: patent US20250263441A1 (Metanovas Biotech Inc., priority 2024, published 2025)
“And” between values parts separate entries of the source, which are not always exact repeats. Equal entries are not always repeated.

Columns and labels:
Assay type in all cases: cell-based
[1] = system: rabbit blood erythrocytes; assay: Measurement of hemolytic concentration; settings: for Hemolysis rate: 37° C., 1 hour, replicate wells
Experimental: 4 mL of 2% rabbit blood erythrocytes were washed twice with 4 mL PBS and centrifuged at 3000 rpm for 5 minutes. The supernatant was discarded, and the rabbit blood erythrocytes were resuspended in 4 mL PBS. 160 μg of the peptides from Examples 1 to 2, FK13, and HPA3NT3 were independently dissolved in 1 mL PBS buffer to prepare the peptide mother solutions with a concentration of 160 μg/mL. Subsequently, the peptide mother solutions were diluted with PBS buffer to concentrations of 80 μg/mL, 64 μg/mL, 32 μg/mL, 16 μg/mL, and 8 μg/mL. 100 μL of the 2% rabbit blood erythrocytes and 100 μL of different concentrations of peptides (80 μg/mL, 64 μg/mL, 32 μg/mL, 16 μg/mL, 8 μg/mL) were added to each well of a 96-well plate. In the negative control, 100 μL of PBS buffer was added, while in the positive control, 100 μL of 0.1% (w/v) Triton X-100 was added. Three replicate wells were set up for each group and incubated at 37° C. for 1 hour. The 96-well plate was then removed, centrifuged at 3000 rpm for 5 minutes, and 100 μL of supernatant was aspirated and transferred to a new 96-well plate. The absorbance was measured at 540 nm using an enzyme meter. Hemolysis rate (%)=((Absorbancesample−Absorbancenegative)/(Absorbancepositive−Absorbancenegative))*100%.

Propionibacterium acnes = assay: Minimum inhibitory concentration on Propionibacterium acnes (liquid culture); settings: anaerobic, 37° C., 24 to 48 hours
Experimental: Primary screening of liquid culture: the peptides in Examples 1 to 2 were dissolved in pure water to a concentration of 100 μg/mL. Using a micropipette, 10 μL of the peptides were added to a new 96-well plate in order from left to right, starting from the second compartment. Positive and negative controls were established for use. The 96-well plates were arranged vertically, and the peptide concentrations in the control groups were the same as those of the antimicrobial peptides. The control groups included: pure water and bacteria, antimicrobial peptide FK13 and bacteria, antimicrobial peptide HPA3NT3 and bacteria, and ciprofloxacin and bacteria. An aseptic medium was used.
If a 96-deep-well plate was used to culture bacteria, an additional 100 μL of sterile medium was added to all wells.
Propionibacterium acnes was inoculated on an anaerobic blood agar plate, placed in an anaerobic bag, and incubated anaerobically at 37° C. for 48 hours. Propionibacterium acnes clones were then picked and incubated anaerobically in liquid anaerobic broth medium at 37° C. for an additional 48 hours. The bacterial concentration was measured and diluted to 107 CFU/mL with culture medium.
The prepared fresh bacterial suspension was diluted to 105 CFU/mL and added to the 96-well plate with 90 μL of the bacterial suspension per well. The plate was incubated at 37° C. with a normal oxygen concentration for 24 to 48 hours (Propionibacterium acnes was cultured anaerobically at 37° C. for 24 to 48 hours in an anaerobic bag). The absorbance at 630 nm was measured using a microplate reader, and the degree of turbidity was observed by the naked eye.
(iv) Repetition of Operations: The Operations in (iii) were Repeated Twice, and the Decision to Perform a Third Repetition was Based on the Reproducibility of the Experiment.

Helicobacter pylori = assay: Inhibitory effect of AMP-33 on Helicobacter pylori; settings: 5 and 10 μg/mL, 48 hours
Experimental: (1) Helicobacter pylori was cultured to the logarithmic phase. Then, 4.5 mL of the bacterial solution was centrifuged at 5,000 g for 6 minutes, and the organisms were resuspended in Wilkins-Chalgren medium. The concentration of the bacterial solution was adjusted to approximately 2× 10^5 CFU/mL using pre-configured McClure's turbidimetric tubes.
(2) Helicobacter pylori was cultured in a microtiter plate (96 wells), and 50 μL of different AMP33 peptides were added (at concentrations of 5 and 10 μg/mL). Next, 100 μL of diluted Helicobacter pylori bacterial fluid was added, followed by 50 μL of medium until the final concentration reached 1×10^5 CFU/mL.
(3) A blank control was provided with equal amounts of medium solution and bacterial solution as in the experimental group, with at least 3 replicates for each treatment group.
(4) The 96-well plate was placed in a bacterial incubator at 37° C. and incubated at 150 rpm for 48 hours.

## Example 2: LSKWLKKLGKLLAG (designated as AMP33)
[1]; 8 μg/mL
  Hemolysis rate: 3.6% and 7.9% and 23%
[1]; 16 μg/mL
  Hemolysis rate: 2.6% and 1.7% and −0.4%
[1]; 32 μg/mL
  Hemolysis rate: 0.6% and 4.6% and 3.3%
[1]; 64 μg/mL
  Hemolysis rate: 0.7% and −0.8% and −2.0%
[1]; 80 μg/mL
  Hemolysis rate: 10.1% (2×) and 11.1%
[1]; rabbit erythrocytes
  Minimum hemolytic concentration: 64.0 µg/mL
Propionibacterium acnes
  Minimum inhibitory concentration on Propionibacterium acnes: 4 µg/mL
Helicobacter pylori
  inhibitory activity against H. pylori: approximately 100%
